Consider two substances from PMC12147180.

Test [1] deals with CCR9-RlucII (human) (UniProt P51686).
Test [2] addresses CCR9 C1 (CCR9-RlucII with S335A/T347A/S352A/S356A/S357A) (human) (UniProt P51686).
The target in test [3] is CCR9 C1 + C2 (CCR9-RlucII with all C-tail phosphorylation sites changed to alanine) (human) (UniProt P51686).
A further test concerns the target CCR9 ΔCT (human) (UniProt P51686).
For test [4], the target named is CCR9-RlucII (human) (UniProt P51686). This is another data set of the same source.

Sequence of Gαi-Nluc (P63096 whole entry): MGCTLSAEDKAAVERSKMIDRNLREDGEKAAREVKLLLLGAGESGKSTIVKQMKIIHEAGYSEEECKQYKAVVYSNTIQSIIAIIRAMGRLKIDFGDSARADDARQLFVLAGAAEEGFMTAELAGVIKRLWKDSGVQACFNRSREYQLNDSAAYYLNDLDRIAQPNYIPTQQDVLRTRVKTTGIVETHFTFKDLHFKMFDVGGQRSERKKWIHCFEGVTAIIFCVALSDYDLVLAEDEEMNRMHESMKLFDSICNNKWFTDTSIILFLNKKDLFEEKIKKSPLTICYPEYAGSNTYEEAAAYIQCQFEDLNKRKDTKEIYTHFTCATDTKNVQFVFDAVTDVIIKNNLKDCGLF
Sequence of Gαq-Nluc (P50148 whole entry): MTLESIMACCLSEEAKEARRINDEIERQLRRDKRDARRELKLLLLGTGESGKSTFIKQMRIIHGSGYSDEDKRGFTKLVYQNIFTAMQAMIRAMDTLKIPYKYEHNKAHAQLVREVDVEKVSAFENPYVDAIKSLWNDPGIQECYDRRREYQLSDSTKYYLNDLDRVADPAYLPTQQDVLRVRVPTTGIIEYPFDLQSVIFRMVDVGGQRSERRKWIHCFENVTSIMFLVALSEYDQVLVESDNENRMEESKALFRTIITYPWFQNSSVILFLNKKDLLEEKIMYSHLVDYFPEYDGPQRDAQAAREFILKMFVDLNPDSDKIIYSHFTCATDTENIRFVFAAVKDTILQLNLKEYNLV

Substance “Gαi-Nluc (from UniProt P63096 1-354) (natural protein)” displayed a decrease in BRET between Gαi-Nluc and Gβγ-smV (G protein dissociation) in HEK293 cells with untagged CCR9, 100 nM CCL25; returns to basal levels within 10 min in the test with CCR9-RlucII (human) [1] of 2%. The same substance showed a Gαi-Nluc/Gβγ-smV dissociation BRET (AOC) in HEK293 cells with untagged CCR9 C1, 100 nM CCL25, against CCR9 WT in test [2] of 2 fold. Moreover, the Gαi-Nluc/Gβγ-smV dissociation BRET (AOC) in HEK293 cells with untagged CCR9 C1 + C2, 100 nM CCL25, against CCR9 WT in test [3] stood at 2 fold. In addition, in the test with CCR9 ΔCT (human), the area over the Gαi–Gβγ dissociation curve (AOC), against CCR9 WT was determined as 6 fold; the maximal decrease in BRET between Gαi-Nluc and Gβγ-smV (G protein dissociation) in HEK293 cells, 100 nM CCL25 is 7%.

Consider “Gαq-Nluc (from UniProt P50148 1-359) (natural protein)”, for which the decrease in BRET between Gαq-Nluc and Gβγ-smV (G protein dissociation) in HEK293 cells with untagged CCR9, 100 nM CCL25 with CCR9-RlucII (human) [4] was 0%. In the test with CCR9 ΔCT (human), this substance returned an area over the Gαq–Gβγ dissociation curve (AOC), against CCR9 WT of 4 fold; a maximal decrease in BRET between Gαq-Nluc and Gβγ-smV (G protein dissociation) in HEK293 cells, 100 nM CCL25 of 5%.
